Molecular target: protein phosphatase-1 alpha catalytic subunit (recombinant PP1α) (UniProt P62139)
UniProt P62139, sequence (P62139 whole entry): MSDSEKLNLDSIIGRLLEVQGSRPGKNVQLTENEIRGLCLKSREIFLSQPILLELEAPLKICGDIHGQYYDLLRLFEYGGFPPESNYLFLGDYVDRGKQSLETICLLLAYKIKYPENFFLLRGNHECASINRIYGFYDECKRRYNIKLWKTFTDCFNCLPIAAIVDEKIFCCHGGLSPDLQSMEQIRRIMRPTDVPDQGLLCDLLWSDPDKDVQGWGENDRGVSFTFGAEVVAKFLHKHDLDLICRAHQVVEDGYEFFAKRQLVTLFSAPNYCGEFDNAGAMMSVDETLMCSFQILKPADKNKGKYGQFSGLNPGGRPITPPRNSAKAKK

- fold increase in IC50 of inhibition of PP1 activity, against Inh3(1–64): 3.5 fold
Binder: MAEAGAGLSETVTETTVTVTTEPENRSLTIKLRKRKPEKKVEWTSDT (domain or fragment) [Inh3(1–47)]

From article PMC2613339
